Experiment: label from the status in PepcDB records
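Also: failed if final PepcDB status was selected cloned or expressed and not failed if soluble or beyond.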

Row | Sequence | protein production
1 | MVVKFTKSEALHKEALEHIVGGVNSPSRSFKAVGGGAPIAMERGKGAYFWDVDGNKYIDYLAAYGPIITGHAHPHITKAITTAAENGVLYGTPTALEVKFAKMLKEAMPALDKVRFVNSGTEAVMTTIRVARAYTGRTKIMKFAGCYHGHSDLVLVAAGSGPSTLGTPDSAGVPQSIAQEVITVPFNNVETLKEALDKWGHEVAAILVEPIVGNFGIVEPKPGFLEKVNELVHEAGALVIYDEVITAFRFMYGGAQDLLGVTPDLTALGKVIGGGLPIGAYGGKKEIMEQVAPLGPAYQAGTMAGNPASMASGIACLEVLQQEGLYEKLDELGAMLEKGILEQAAKHNIDITLNRLKGALTVYFTTNTIEDYDAAQDTDGEMFGKFFKLMLQEGVNLAPSKYEAWFLTTEHTKEDIEYTIEAVGRAFAALADNK | not failed
2 | MVVKVINKKQDKFYFKLGMFILIFLILGVSLLNIIGINVDKTYENGNGMYAHIVDYSLPWVKVANNKNTSENTYSIKNIILSAAGLDINKPENVISKEVSFLGEALPKSIKSECPNESFTLDDKDVVKSTSGSVQNEPLKNINENIYDPKLKKALDKSKPEILIYHSHTTEAYKPYPADSLNSTQNVCAVGDELVKELGEKYGIYAINDKTVHNVVDYNKSYTRSGETLDKYLKQYGDFKMIIDMHRDSDVPKSKVTARINGEDVAKFMFVMTRKNPHFDKNMALVNGLVSICNKDFPGIFNGIYYYDYGINYYNQQKSNNAFLLEVGSDINTIDEAKGTSKYLARIIAEYLNGKK | failed
3 | MVVMYFLFPETTNVVIVSALNFAALFLSFFTHYTSSRKDEDLTILAFSCLFSSLLSLFFLRIFLMNPKNAWMFLSSSKLILAEGFFFFLIGKKKNSFKWLVVLTFVILFAVSVLRFDFTLHLESVSLALFSLLLLIRKPQTTLLSVSLFLYSISSIFFYFFRSAYPYHVASGSIFLMWHFVKKYVETPKEEAEKLSKELEIPPERISSAVTNLYNFLIEILRIIPEILREDDQNRVREMLSKYFSQEVSSYFPKLRDAFSKFAEEYISFLEEKQKFQDMYVVLTKNLAHNLKNPVNAIYVSAQLLKQQFPETSPVVRNIEKLCHEMTEEIERILKTSIGRSEVLRKNDVEKALEPILETARLKNLETDIEMEFDELEIDKDAFLALVLNLFSNAVKYTPSGRVVLKIEKKNDKINLRVSDTGPGLKEQNGFGLFTVKKLVNYLNGSMEVIKKDGTTFVITLPLRRDKNDSTDRGR | failed
4 | MVVRSLSVVGLGPAGAGAAAAASRLGVKPVIYEAMEKPGLKPCGRGLPIVDGGLPVSIPRDSILRRIRGARMYVDGEFLFEMKGFLDGYIVDKTVMLEAIAVEAGGEIHYRAKYKPGSSTVRLPGGGEARVEQGVFAGGHPYYGGAKIAAVQWIMKTGPRSDPVGDMLEIHFDTELLGYAYIFPKEEGFIEVGIGGFATPRELRERLESFIHKRSDLRELERVKLEGARIAIGGLDLGVVDGLVKAGEAAGFVLPLTGEGIRPSLISGYEAASALIEGGSPLEKLRSLPIARAVSMQKRILDLVAGMSVEERRSLLKSLTPRAHAEIALGMFRKHILLKELARSPRALSLLGLVTRLI | failed
5 | MVVYGADVICASCVNAPTSKDIYDWLQPLLKRKYPNISFKYTYIDITKDNDNLTDHDLQFIERIEQDELFYPLITMNDEYVADGYIQTKQITRFIDQKLVNE | not failed
6 | MVVYGKQKYIMKRCFYMNKKLKTEAVDHLFQAILTLKSTEECYSFFEDVCTVNELLSFSQRYEVAKMLREKRTYLEIADKTGASTATISRVNRSLNYGNDGYDMVFKRLEDQAAEDNEA | failed
7 | MVWTGLLIGVLFGVILQRGRICFNSAFRDVLIFKDNYLMRLAALTLGLESITLLIFAQAGIITLNPKPLNWIGNIIGGFIFGMGMVLAGGCASGVTYRTGEGMTTAWFAALAYALTAHATKKGLFSGWIKWLSNYTVTVSNTNPVYAPKTGPTIATVLGISPWIASIIFLALMLWYAFGVKNKSQRPSKLNWIAASVLIAILAPIAWWASASTGRNYGLGITGGWINLVSVYANNASLNWEGAEILGIIIGAAISAIAGKEFKLRMPKNPKTYAQVLLGGFLMGFGAVTAGGCNIGHFLTGVPTLAISSIVASIFFILGNWTMAWFLFGRQK | failed
8 | MVYDNIKREIIGMLKRMPNKQADWDNDLLPTLKAMFNPKSVSNAKSQLISEGVISQEIVDGKKIITLIKDPYELQAPNVFDEEMFLAYYTDKLKEYFKHKLSTEGPEWDIFDVKEFIMHFPESGDLNDKLIEHPYEVRKSITNVYIEAYEELFNETPNVEFIHIRNPIDCRISLSELSSAHKGKLVEFRAMILQATKLKLRYAKGFYYCPKCGATKTLDLGFWDKPKEVGKSLTCPADGCDCKGLIFDEDLSGKVDFQEIKVQTPLQESIYANKHSTTVFYEFNKPKKAVYSGYVKIVGVPIVKENKNGSVGELYIHAFYIEKDDEDIEEIAKNLNEKDLELINRIAKDKNVIQKLSDYAFREVTGYDMIKRAVLLQLVSSGTNIDMRTSIHILMISDPGVGKSTLMESLIQKFPFVKKVYAVTSSGPGLVGSVVREKAEFGDSWVLKAGVLTEADGGVVCIDEFSRNKEVYDYLLGVMEQQKIEINKAGVIDAVLPARVAILAACNPRFGRFNPDLTVWEQINLPKELLDRFDLIFVIKDKIDKKKDEDIADFSIDNYNSKVRERKGKSSGKKFVINGVELNDELLLKYVLYARQIEPEISDEARKIIKEYYVSVRKMSEAKGTFGISARQLGSIIRLAVAHAKLRLSEVVKAVDAEEAIRLVDTCLKQIAYDPESGSIDIDKIAGTPKSKRDKVEKVLNIIKEISNSRDDGLAPEEEIYERAERAGLSEKEVEDAINYLKRVGDIYSPKSGYWQLMS | failed
9 | MWAYLAILAMAYVTYKTKALDIKGIIAALLLGVIIVTLGGIIPFIALLAFLVMGTLATKFRYREKRKMGLIDESIRSVGNVLGNGLAPLLFVIVEFIIKQDFGWAGVLSSIAVANADTLASEIGKVFGKNPRIITNLKPAKPGEEGAVSFAGEFAALLGAFVISLFGLSLTEYGIQMIVSVTLAGLIGANIDSLIGATFEKNGYFGNNMTNFIATLLGGLLGMALFLLLV | failed
10 | MWDALTNWLNLWVGQIEATVFQNVVLPVVYNLGFGGYAEDAFTGTEWLLVGLVQIAVMVLILGPLERLRPVEVVTDRAAIRTDILYTLIHRLGLFRLAMFFLLAPLMDGIEGHLRLLGWQRVNVEDWWPGVTSIPLISFSLYLALFDLLDYWYHRLSHTYRWWWSLHAVHHSQRQMTLWSDNRNHLLDDILRDFVFAAVALAVGVEPSQYVLLVALSQLLQSLQHANLRLHFGWLGERLLISPRFHRTHHAVGLGHEKRATAEKPARLGGCNYGVIFPWWDMLFGTADFTDVYHPTGIRDQMPPPAGRARSYGDGFLSQQWLGIKRLLRLG | failed
11 | MWRSCLRLRDGGRRLLNRPAGGPSASMSPGPTIPSPARAYAPPTERKRFYQNVSITQGEGGFEINLDHRKLKTPQAKLFTVPSEALAIAVATEWDSQQDTIKYYTMHLTTLCNTSLDNPTQRNKDQLIRAAVKFLDTDTICYRVEEPETLVELQRNEWDPIIEWAEKRYGVEISSSTSIMGPSIPAKTREVLVSHLASYNTWALQGIEFVAAQLKSMVLTLGLIDLRLTVEQAVLLSRLEEEYQIQKWGNIEWAHDYELQELRARTAAGTLFIHLCSESTTVKHKLLKE | failed
12 | MWVQTKANEDAAPMSERFTLVLLTHEAKALAQRALRYYSSFACSILVLDSSEKADESLARQFPKVDYRHVPQFSRQDQQGKLTYGVGLVDTPYLAIASDTDFLIADGISAALAFLDAHPDYAVCHGYGLMYSARVLETSYYLRDRKGPEDFAAANGRERIMSFMGHYLSPFNAVTRTDVLRQWYSQLPPAVSTEWLDIGYAFFLLATAKARILPVPFIVREANREALERTARIQALLSSKDAGSLAQHQQFAEFLATLPHNCEGPDAQQMKQLALDSFAALAECLESGRSLKGVMIFRSTWSEVGKDPVRAFGSEQFVEMPFYNQPMFDLLTQIEFLVHAMPAGRLQLNELEGVLLKQEELLRVHSNDTARTLRSRLWEAMALNLFNFTVVKRLAESMRDTDEVEVFRELQEWAARLKALPATDSSALFANTQSGQLFSWLEGRGPKPGQFKSIAHLLGRRAGGPQFQILLLDLDADMIKLQATFDSLMANHCKAFKLVVLTTGDLPAMTTAQDTVHFVKVSQGNYIERLNQLVAQSTAHWVLLMEAGDQLTASGLLRASLELLGAEGIRAVAMDEVQRQADGTLRHVFRPGVNLDLLQSAPNLMARHWLLHREVLLQAGGFNREFARAVELDLVLRLIEDGGLAGLAHLAEPLLICQAAPAGENAEERQVLSRHLANRGYRAQVSSAQPGTYQIDYQHAERPLVSIILPSQDNFAELQRCLVSVLQRTRYQRYEVLIAENHSQNAELDSWLASLERQGERIRVLRSGQRVSTSALHNAACAEAKGEYLLLLSADAEVVNANWIDSLLNQVQRPEIGIVGARLVNERGMTTQAGLILGLNGQLGAAFAGEAKDAPGYMNSLWVEKNYSAVSGVCLMIAKALFEAVGGLDEEHFDQAFADVDLCLKVADAGYLTVLTPQAQVMHPGTLAQDPQALAALKDKWAARFAQDTAYNQNLALTGKGFALGTASRVDWQQLLSN | failed
13 | MWYPLAAMKGVLEALHQGDYDTAIDLLTRKALFGREREAKEAWLLLAEVYALYGEEGLEKAHHALEEAYALGGLEYDPLYRSLLAELLALEGRPEREVLPLFLPSRDPRVRYHQAQALFYLGRLEEALEVLEAGLPPHLAWRAEGLKGRILERLGRHGEAALAYERGAELALGLERYWLLLDAAAMWLEAGEGERALLALKEAEAAVGEEDPEDAATRHYLLARAHLLLGNPGLALEEIRKALALEEESGHKAYGTPLVEGQALLQLGRYEEAMASFREALARADAGERPHVLHEMGVAALDHGAYPEAEEHLRALVREEGYPYLAQAYADLAEALYRQGRYQEAEAAAREAVARGAVAAGELVLGHVAYDLLHLEEALEHYRKAAESAEEGSREWVGAQEMVVDTLAQLGYRFPEEMVRRGQAVLPYLHPADEWHAALTAYVERAQALLREGKRLN | failed
14 | MYAAVEHGPVLCSDSNILCLSWKGRVPKSEKEKPVCRRRYYEEGWLATGNGRGVVGVTFTSSHCRRDRSTPQRINFNLRGHNSEVVLVRWNEPYQKLATCDADGGIFVWIQYEGRWSVELVNDRGAQVSDFTWSHDGTQALISYRDGFVLVGSVSGQRHWSSEINLESQITCGIWTPDDQQVLFGTADGQVIVMDCHGRMLAHVLLHESDGILSMSWNYPIFLVEDSSESDTDSDDYSPPQDGPAAYPIPVQNTKPLLTVSFTSGDISLMNNYDDLSPTVIRSGLKEVVAQWCTQGDLLAVAGMEQQAQLSELPNGPLLKSAMVKFYNVRGEHIFTLDTLVQRPIISICWGHRDSRLLMASGPALYVVRVEHRVSSLQLLCQQAIASTLREDKDVNKLTLPPRLCSYLSTAFIPTIKPPIPDPNNMRDFVSYPSAGNERLHCTMKRTEDDPEVGGPCYTLYLEYLGGLVPILKGRRISKLRPEFVIMDPRTDSKSDEIYGNSLISTVIDSCNCSDSSDIELSDDWAAKKSPKISRSSKSPKLPRISIEARKSPKLPRAAQEISRSPRLPMRKPSMGSPSLTRREFPFEDITQVGSYN | failed
15 | MYADEQFKQVFQCIRCAACLNVCPAFQLVGGHVYGHIYTGGIGTILTAFLNSEKDAENPQNLCLQCGKCTEVCAGKLDIPGMILEIRNRIGDQKGLPMTPLEHHHHHH | failed
16 | MYALVDAVSFYASAEKVFDPSIRNKPVVVLTNNDGCICAVCPIARRLGIPKFIPYFQVKSLLEKHGVVVRSSNYELYADLSERMMNVIGRFCDNQYIYSIDESFLYFDHYESCINDWHEYGHKIRKAIWKETRLPVGVGFGETATLSKAANHAAKKLSGFNGVAVINSAVSRDKILKRMAVDEVWGIGRKISKRLGLEGINNAAQLAEQDPKHIRKQFSVVTERTVNELNGISCLSWDEVKSPKKEIFSTRSFGQRITTKNELRSALVTHAAIVGRKVRRQNSLIKKLMIFASNSPHDDLYYKQSMVFPFIIATENTCEMARAVNQVIDSIYKAGIKFYRCGVGAIELNSKTFIQPDLFMPDHTNSNVMKCLDNVNHRYGDSTLKLAAEGHHEKWQMRRAFLSPQYTSQWRDIPKIQC | failed

From a protein production outcome set (Wang et al. 2014)
